The assay addresses T1, LINGO2-GFP on HEK293 transfectants (mouse, UniProt Q3URE9 28-606).
T1 construct: LINGO2, mouse, from pCMV3-mLINGO2-GFP; also called GFP-LINGO2; pCMV3-mLINGO2-GFP; source: HEK293, transfected, on cells
T1 sequence (looked up): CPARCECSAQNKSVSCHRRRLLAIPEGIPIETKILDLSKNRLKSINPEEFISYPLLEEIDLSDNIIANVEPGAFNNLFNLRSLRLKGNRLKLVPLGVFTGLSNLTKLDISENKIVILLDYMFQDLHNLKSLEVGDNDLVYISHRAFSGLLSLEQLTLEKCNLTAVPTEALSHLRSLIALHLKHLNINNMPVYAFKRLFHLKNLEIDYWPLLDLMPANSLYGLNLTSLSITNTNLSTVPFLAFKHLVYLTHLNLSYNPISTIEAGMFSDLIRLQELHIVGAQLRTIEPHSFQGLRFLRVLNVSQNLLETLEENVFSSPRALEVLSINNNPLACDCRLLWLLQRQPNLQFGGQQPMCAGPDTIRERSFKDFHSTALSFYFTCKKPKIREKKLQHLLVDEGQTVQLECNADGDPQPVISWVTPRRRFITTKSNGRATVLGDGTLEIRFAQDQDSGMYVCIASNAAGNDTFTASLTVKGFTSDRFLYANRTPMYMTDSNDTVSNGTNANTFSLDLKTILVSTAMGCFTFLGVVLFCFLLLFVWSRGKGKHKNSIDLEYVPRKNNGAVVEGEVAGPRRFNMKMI
Description: flow cytometry on cells; HEK293 transfected with GFP-labeled receptors, 24 h later incubated with PBS or 3 ug Alexa Fluor 647 labeled soluble ligand for 16 h at 4 C; double positive (GFP and AF-647) cells counted. Particulars: one partner purified. (In general: In flow cytometry, cells or beads pass a laser one at a time.)

The values that follow come from paper PMC6764942, “TFF3 interacts with LINGO2 to regulate EGFR activation for protection against colitis and gastrointestinal helminths” (Nature Communications, 2019).

Where no end group is shown, it is not given here.

B1: TFF3-647 (murine recombinant TFF3 labeled with Alexa Fluor 647) (ligand, mouse, UniProt Q62395 23-81, looked up)
chain: ADYVGLSPSQCMVPANVRVDCGYPSVTSEQCNNRGCCFDSSIPNVPWCFKPLQETECTF
modifications: ends and bridges not checked; also: Alexa Fluor 647 label, site not given here
notes: Trefoil factor 3, mouse, recombinant (Peprotech); A commercial recombinant TFF3 is probably the mature protein (surmise); source: bought: Peprotech
For B1, the “fold increase in double-positive cells compared to PBS or IL-2-647” value was determined as 12 fold.
